Measured values: the domain aggregation screens of Martell et al. (2025)

Assay: soluble fraction after stress (log2 fold change); higher = more stays soluble; pooled small domains, quantitative proteomics
Conditions: stress: 75 degC
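Further: 20 min heating vs room temperature control held 20 min.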

| Sequence | soluble fraction (log2) |
| --- | --- |
| HMERPSLDQVLAHAKALGIAPARFVAYADGRWGTGWRLSPHGRARAWEELDRHRNDPLGYRDKLDVALQSG | -0.179 |
| HMESAQLIINVAGKVSNPGVYQLPQGSRVVDAIEAAGKQLKGVDISDINLARVLVDGEQILVGGV | 0.363 |
| HMESAVDVFRSILKEKGVTEEEVRQVVAARGKYTLETPIDDYPNEFLYGYVIRYWDQIFDIIQQSREAK | -1.06 |
| HMESEAKLGVAFNGKTRFDMTFPADADNKTIEEAVLADERAQKYLEGFQVAKVIIVPKRMVNIVLK | -0.189 |
| HMESEIYKKIEKSRLLELAFTKSQKGDLTGAYDLYYQAFTKYDVIADNQNRYFEDFISLIRRKQQQD | -2.54 |
| HMESGLPLPRFVSLGADEVNLRTGPGLRYPVAWVFVRKALPVEIVAEFEQWRRVRDFEGAEGWVHKAML | -0.163 |
| HMESGSSKINQDILETFTRGKKSLSISDISRLSGHHRHTVARYLDNLVSSGKLEMRQHGQKKKYYLSDIQP | -0.314 |
| HMESILDDFPGLGAVRRAALLEHFGDIDRLRAASAVEITEVDGFGDVLARELHDFLHRPKPDA | -0.515 |
| HMESKKKTYTVKSGDTLVSILKREGVPQELIFKDYLGLFLELNPQISDINKLRVGQEIVLPVPG | 0.05 |
| HMESLGEKIKNIRISNNLKQSELADILHISEKTISSWENNRTTPDLNMIYKISNYFKKSFYYLISDDYI | -0.908 |
| HMESMIGSLRGRLLELFGDGEVLIEVGGVGYRVIVTPTTTVRLGDVGGDVFVHVHHHIREADQTLYGF | -0.48 |
| HMESPSGGHRIALAFDQGTARAVDATYARLTGAGYEGRTKPWDAPWGQRYATVFDPDGNSVDLFAALE | -0.445 |
| HMESRDRVRQASAAGYRFMSTMAGHEPGFEEASRALFAGDQTAFEARITAWPVDVQTHLKKILAEAFTT | -1.17 |
| HMESRLQAAIALRKAGEHEQSREALKILADEPALRAQALLNIAWSFDNQGHERDAEGYYLAAIE | -0.381 |
| HMESSKLQASIINYLERRPTQKFTAEELFKGLSLEKASVFNELVKELTSLERSHKVEITADDKFKIARPQ | -0.331 |
| HMESSSQLGFELARLVESGNDEEARALVQAKELSEADERKWLYHLGNLLHAAGRPLQASAIWREVGT | 0.0141 |
| HMESVQWSVFPSAKYVTIISFDPTTSGGSATAKFKVSDEARSKGFRFRIEAAIGEGIMRSEMYVIEE | 0.215 |
| HMESWNRARILEKIRELHAQGVALNNASMRRLGYRGMMEAAARPQNFGSWEAAVRAAGIDYDRV | -0.275 |
| HMETAVMPDVMKLDSTTAIQALKDKGFATIETYEVKSDRPAGVVVRQSETADSVVALSKEILLGVSNGADY | ≥ 1.04 |
| HMETGFADTLRKFRKEADMTQEKLAEALGVTTGAVYKWENGRSTPEVRLLVEMADLFGTSVDALLDYKVR | -1.33 |
| HMETGKLIKELRLKKGMTQEELADKTEVSSRTIQRIENGEVDPRAYTLQMIARALEVDYSLFME | -0.408 |
| HMETIELSAPGGVRLDKLIADGTELSRSAAVKLIEQGNVLVNGSPAGKKDIPAAGAAVEITLPEPQ | 0.0135 |
| HMETIGENIKTYRQKKGYTQEEVANRLHVTRQTISKWEKNYSIPDAEVLVKLADVLEVQTSQLLGV | -0.374 |
| HMETIGKRVRAARQELGLTMKQLHEQTGLSTGNISDIENDRNTPSVSSLVALGRALRRSLDWLLTGEE | -0.959 |
| HMETISEIWRLIDGLDEIYRVPLTMYYRSNRSVREIAETLGLSARTVETRIYRARRMIREKWSN | -2.06 |
| HMETITDRLNRRSLELNVSQADIIRTTGAGRGTVSGWFSGANAPSAKYLESLAVALKTSTTWLLSGKD | -2.23 |
| HMETKERDEQFLEMIRQNEGIIFKVASFYVDKEHPIGDLYQEVVLNLWKGYPSFRGESKYSTWIYRIALNT | 0.058 |
| HMETKPTELMLEVHELRIGMFVHLDLGWMDHPFPLNRFKISTNSQIEQIKGLRLKQVKVMTALSDPTALS | -2.29 |

| Sequence | soluble fraction (log2) |
| --- | --- |
| HMETKQYIVEAQDEGTRLDVYLTKELGQSRSYVQSLVKEGHVQVNGKTGKSNLKLSSSSEILVTIPEVQ | 0.067 |
| HMETLKINTHLGTLNLKKRGKKGTWQINIYFKNIEGDNHYRQSTGTNQLELAKAKAMNMITTEYSNRLAGI | -1.67 |
| HMETMSYAEFNAIRIGKAKLMLADPSLKIWEISEAVGYTDTAHFARTFKKLEGMSANEYRNSL | -0.862 |
| HMETNFTGTRIATARKAKNMSQAQLAQQLFISPQAVGKWERGESIPDIVTVVKLADVLGVDLNYFSE | -0.572 |
| HMETPQIVARGDLITMVFRSGSLVLTAKGKALENGAMGDTIRVVNSDSNKTLAARVSASREVTVSE | -0.549 |
| HMETPSNTAGITHATSDGYIFKGESDIIGRNSFGFIVKHGSHNHIIPFDSLRGTKWEYLINKYT | 0.000248 |
| HMETSVDEVYKKIQAYIEAEDKHKPLSDQKLAEQLQSDGLKVSRRTVAKYREKLNIASSSKRKR | 0.242 |
| HMETTVPNVLNHNISTGEILLKENNLNFRIQYIPSNKDEAVGTIINSVPTSGEKVKFGTVVDLKVL | 0.146 |
| HMETVRHFRLDWSQAADRLDKVLASLMNDVSRARIQEWIRLGAVSVNGEILTDVRAKVAGGDAIDVTPQTA | -0.722 |
| HMETVRLSVDAQGAYYWNEQRVDDSALPDLLREASGRKPQPDLHIRGDKAVRYERVAEAMAAAQRAGLKKI | 0.272 |
| HMETVVTEVKTTDVVNIRTSDSETADKLSKAAIGDTFPLLEERGNGWSKVAYNGEEAFIKSDYLEPSKTE | 0.0124 |
| HMETYEFNITDKEQTGMRVDKLLPELNSDWSRNQIQDWIKAGLVVANDKVVKSNYKVKLNDHIVVTEKEV | 0.0567 |
| HMETYPINVETTGTNVLLRTGPSTSSNIIKTITDKGTVFLSIERGINSDWQKVVTPDGTIGYMSGKY | 0.00405 |
| HMEVAVQFIEFKIPENHAWIGKEIREITFPPESILVLIIRDGKKLVPNGKTVLKEGDSLILSGKASD | -1.43 |
| HMEVDDEAIYQGHEPSIRLHRLLKDVGYNSALLPSVVTQIFKDFPGIELAKALPIAMQLLNED | -0.617 |
| HMEVFGDTKEEQMIIDILKLGITDLEHLQAKSMLEPAIFSQTLTMLEISGKIRPLGAGHWTL | -2.87 |
| HMEVFTPSEANVAEAREILAAMATAKANGEGATVYKGRLVDIASIKQAEVIVRQSEMIQSAH | 0.696 |
| HMEVIDQLFKIALTLFDIDKGENNSISQDLVDKVIEQMKTTAPTFIKRELSEDEVKKLRFEIQNHFNV | -0.482 |
| HMEVKSGFVHLTGAVKSPGVYPISIGMRLFEVIALAGGFTAKADRESVNLARTVTDGEQIIVSGSG | -3.72 |
| HMEVLEGFIEDIKFKSEESGYTVAKLNNRNKSIVIVGTMPFISEGQHVKLTGEWKIHQKFGAQFNVKELEE | -0.923 |
| HMEVMYFIYQQEEPMRIDKFLVNEMEDFSRNSIQIYIKDNHVLVNDKVVKANYILKKGDAISITIPDPI | -1.14 |
| HMEVNMEEKMEFVHSYIKTHKTFLFRQLLSESKSRTQVIVTFLVILELIKGGKISVTQENRTDDILINSL | 0.0528 |
| HMEVPDTIIRLRELVAAMPEQWQKVYRLVFMEGLSKAKAGKKIGISDVRVGQLVKKINAAIAGDETLK | -1.01 |
| HMEVPMELPRQLRANRERLGLSQEDVAHAIYVSRQTMSSWERGKTYPDVQSLMLLSHLFGISIDELVKGDV | -1.57 |
| HMEVPVQYIKFKIPENHFWAKKKVADIILPPETLLVLLQRGSDKMIPDGETVLLPEDTLVLIAKAPG | -0.479 |
| HMEVSVPDFTGMSKSDAQNAAKEAGLTVNFEEDYDNQVPAGQVIRSNPSAGEKVKKNSSVTVTLSKGSN | 0.128 |
| HMEVSYSLPRFHKGKNPYVDFYQVDPRTLRMRRKKFLLRGVRDAVLLEQRAADLVALLTERLHSGWNAWDD | -2.1 |
